{"source": "paper PMC7751257", "origin": "cited, not measured here", "molecular_target": "Spike RBD RBD (SARS-CoV-2) (UniProt P0DTC2)", "note": "pKd: −log10 of the molar value."}
{"substance": "SBP1 α1 helix 23-mer (from UniProt Q9BYF1)", "values": [{"measurement": "pKd", "result": 7.33}]}
